The values below come from patent US20230357428A1.

Experiment [1] addresses mix of HLA-A*02/SimPep tetramers (peptides SEQ ID NO: 51 to 59). Briefly: yeast display, SimPep tetramer mix, 10 nM each.
Experiment [2] shares this target. The experiment can be described thus: yeast display, flow cytometry; 10 nM PRAME-004 monomer (x), SimPep tetramer mix 10 nM each (y).

Where “and” joins values, the source holds several entries; their conditions need not be identical. Equal entries are not always repeated.

B1: stabilized scTCR R11P3D3SD (TCR)
chain: ILNVEQSPQSLHVQEGDSTNFTCSFPSSNFYNLHWYRKETAKSPEFLFYMTSNGDEKKKGRISATLNTKEGYSYLYITDSQPEDSATYLCALYNNNDMRFGAGTRLTVKPGGGGSGGGGSGGGGSGGGGSGGGGSGVIQSPRHLVTEMGQEVTLRCKPISGHNSLFWYRETPMQGLELLIYFNNNEPIDDSGMPEDRFSAKMPNASFSTLKIQPSEPRDSAVYFCASSPGSTDTQYFGPGTRLTVL
Consider B1, for which the yeast cells stained positive in experiment [1] was 3.3% and 2.5%. In experiment [2], this molecule returned a % cells, upper left quadrant (monomer-, SimPep tetramers+) of 3% and a % cells, upper right quadrant (monomer+, SimPep tetramers+) of 0.8%.
